Laboratory results published in patent US20020142976.

Test system: IDH22

ATR, sequence (chain, as listed by the source): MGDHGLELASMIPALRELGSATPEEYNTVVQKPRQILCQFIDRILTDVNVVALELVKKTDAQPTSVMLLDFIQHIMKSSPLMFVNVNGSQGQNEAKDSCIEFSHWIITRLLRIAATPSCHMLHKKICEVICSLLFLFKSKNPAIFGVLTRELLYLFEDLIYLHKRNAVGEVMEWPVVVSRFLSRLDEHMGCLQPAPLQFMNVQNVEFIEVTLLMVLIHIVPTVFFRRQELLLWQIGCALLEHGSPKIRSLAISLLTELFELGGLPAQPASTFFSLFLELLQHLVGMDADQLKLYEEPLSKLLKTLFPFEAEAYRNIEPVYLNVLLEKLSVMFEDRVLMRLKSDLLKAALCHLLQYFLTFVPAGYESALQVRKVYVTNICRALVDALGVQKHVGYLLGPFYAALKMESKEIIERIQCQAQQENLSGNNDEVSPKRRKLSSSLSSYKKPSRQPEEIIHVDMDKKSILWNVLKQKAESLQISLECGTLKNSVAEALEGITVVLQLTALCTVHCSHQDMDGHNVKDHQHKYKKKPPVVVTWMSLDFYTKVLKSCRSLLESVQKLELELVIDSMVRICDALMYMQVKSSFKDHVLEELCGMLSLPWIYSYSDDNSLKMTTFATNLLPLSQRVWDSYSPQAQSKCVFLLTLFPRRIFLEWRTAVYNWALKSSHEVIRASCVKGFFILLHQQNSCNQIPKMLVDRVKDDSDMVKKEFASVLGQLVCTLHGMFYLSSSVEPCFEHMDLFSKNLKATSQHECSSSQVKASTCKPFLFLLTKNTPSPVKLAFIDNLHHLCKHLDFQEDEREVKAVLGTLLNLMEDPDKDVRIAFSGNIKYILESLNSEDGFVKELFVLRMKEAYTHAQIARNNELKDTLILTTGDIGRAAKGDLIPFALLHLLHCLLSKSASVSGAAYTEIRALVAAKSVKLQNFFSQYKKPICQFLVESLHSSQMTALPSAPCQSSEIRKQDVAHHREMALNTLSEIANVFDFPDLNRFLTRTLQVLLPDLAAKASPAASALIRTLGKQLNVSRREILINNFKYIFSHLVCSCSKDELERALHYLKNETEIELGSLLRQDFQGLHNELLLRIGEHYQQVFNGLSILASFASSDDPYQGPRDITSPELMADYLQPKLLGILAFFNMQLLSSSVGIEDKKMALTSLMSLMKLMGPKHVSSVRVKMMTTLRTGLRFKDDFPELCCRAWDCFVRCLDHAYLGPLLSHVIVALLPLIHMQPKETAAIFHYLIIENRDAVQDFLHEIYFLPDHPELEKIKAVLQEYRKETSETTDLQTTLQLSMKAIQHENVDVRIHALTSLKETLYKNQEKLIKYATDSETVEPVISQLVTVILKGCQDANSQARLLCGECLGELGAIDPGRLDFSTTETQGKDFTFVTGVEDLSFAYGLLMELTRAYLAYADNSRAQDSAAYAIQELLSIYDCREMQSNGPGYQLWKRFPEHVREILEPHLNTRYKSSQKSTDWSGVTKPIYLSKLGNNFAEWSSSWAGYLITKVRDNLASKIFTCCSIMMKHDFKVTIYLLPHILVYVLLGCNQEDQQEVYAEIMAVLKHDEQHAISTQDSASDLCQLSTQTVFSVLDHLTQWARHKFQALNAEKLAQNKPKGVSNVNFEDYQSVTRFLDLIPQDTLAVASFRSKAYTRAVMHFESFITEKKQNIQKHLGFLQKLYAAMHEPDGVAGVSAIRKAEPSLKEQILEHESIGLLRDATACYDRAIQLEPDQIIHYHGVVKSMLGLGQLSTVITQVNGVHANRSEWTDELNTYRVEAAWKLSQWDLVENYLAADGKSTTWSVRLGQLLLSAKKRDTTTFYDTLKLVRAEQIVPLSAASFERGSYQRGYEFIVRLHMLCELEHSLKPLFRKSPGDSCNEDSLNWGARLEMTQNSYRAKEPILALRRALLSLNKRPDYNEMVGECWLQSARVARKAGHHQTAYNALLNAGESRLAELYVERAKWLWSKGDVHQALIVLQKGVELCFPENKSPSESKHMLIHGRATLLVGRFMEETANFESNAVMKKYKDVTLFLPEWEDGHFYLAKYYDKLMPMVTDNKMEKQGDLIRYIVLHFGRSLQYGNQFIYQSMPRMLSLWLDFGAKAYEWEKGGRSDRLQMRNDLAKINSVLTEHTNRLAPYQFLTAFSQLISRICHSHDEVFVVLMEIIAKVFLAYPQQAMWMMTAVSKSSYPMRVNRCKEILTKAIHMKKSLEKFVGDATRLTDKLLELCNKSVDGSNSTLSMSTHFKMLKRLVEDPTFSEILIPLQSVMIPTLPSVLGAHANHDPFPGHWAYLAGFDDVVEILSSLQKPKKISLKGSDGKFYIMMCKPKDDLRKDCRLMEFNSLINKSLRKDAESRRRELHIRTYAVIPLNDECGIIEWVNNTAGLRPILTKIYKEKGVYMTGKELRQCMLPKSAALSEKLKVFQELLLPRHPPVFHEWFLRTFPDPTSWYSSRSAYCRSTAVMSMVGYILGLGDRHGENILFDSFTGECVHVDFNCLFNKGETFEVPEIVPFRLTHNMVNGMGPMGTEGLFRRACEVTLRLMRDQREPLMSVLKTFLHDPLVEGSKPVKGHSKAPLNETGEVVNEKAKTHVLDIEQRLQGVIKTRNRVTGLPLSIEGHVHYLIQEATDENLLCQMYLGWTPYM

In the case of ATR, the “phosphorylation of peptide substrate (32P kinase assay, plate-captured ATR)” value is reported as “ATR phosphorylated IDH22”.
